# How the values were obtained:
# syntaxin4 [1] = molecular target: syntaxin4 (UniProt P70452); assay: Munc18c IP, syntaxin4 blot; conditions: reference: wild type Munc18c (WT and R cells), insulin
# syntaxin4 [2] = molecular target: syntaxin4 (UniProt P70452); assay: syntaxin4 IP, Munc18c blot (reciprocal); conditions: reference: wild type Munc18c (WT and R cells), insulin
"binding against the reference (syntaxin4 [1]; sites Y218,Y219)","binding against the reference (syntaxin4 [2]; sites Y218,Y219)",binding against the reference (syntaxin4 [1]; sites Y521),binding against the reference (syntaxin4 [2]; sites Y521),Substance
stronger,stronger,–,–,"Munc18c (from UniProt Q60770) Y218/219F, insulin"
–,–,stronger,stronger,"Munc18c (from UniProt Q60770) Y521F, insulin"
